Among the data in PMC7801515 are Kd and koff values, retold here.

Usually pKd stands for the Kd on a negative log10 scale, so that one unit is a factor of ten. A word on the koff: it is the rate constant with which the complex falls apart. Low values mean slow dissociation, high ones fast dissociation.

pKd: −log10 of the molar value. Values joined by “and” are separate entries in the source; they are usually repeats but may differ in a detail not shown here. Equal entries are not always repeated. Where two headings read alike, the source gives them in different places.

Experiment in all cases: SPR
Experiment [1] has as its target P2B-2F6 monoclonal antibody (human).
The target in experiment [2] is SARS-CoV-2 receptor-binding domain (RBD), residues Arg319 to Lys529 (SARS-CoV-2) (UniProt P0DTC2).
For experiment [3] the target is unchanged. This is another data set of the same source.

In turn, “SARS-CoV-2 receptor-binding domain (RBD), residues Arg319 to Lys529 (from UniProt P0DTC2 319-529) (domain or fragment)” showed a pKd in experiment [1] of 7.81.

On to P2C-1F11 monoclonal antibody, for which, in experiment [2], the negative-log Kd (pKd) was 8.96 and 8.57 and 8.86; the koff is 0.00263 s⁻¹ and 0.00303 s⁻¹ and 0.00213 s⁻¹. This substance showed a pKd in experiment [3] of 8.62.

Turning to P2B-2F6 monoclonal antibody, in experiment [3], the pKd was 7.72 and 7.86 and 7.85; the koff was 0.102 s⁻¹ and 0.0911 s⁻¹.
